Measured values as given in patent US20250340641A1 (KYMAB, published 2025).

Key:
[1] = target: T1, human ICOS expressed on the surface of cells (human, UniProt Q9Y6W8 21-199); test: flow cytometry on CHO-S cells, purified IgG1
T1 construct: also called hICOS; Human ICOS CHO
T1 sequence: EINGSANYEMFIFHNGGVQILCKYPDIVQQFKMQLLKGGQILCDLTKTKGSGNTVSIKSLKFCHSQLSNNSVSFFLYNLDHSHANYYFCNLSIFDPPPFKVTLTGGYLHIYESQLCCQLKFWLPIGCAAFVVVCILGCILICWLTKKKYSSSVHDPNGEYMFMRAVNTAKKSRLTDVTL

[2] = target: T2, mouse ICOS expressed on the surface of CHO-S cells (mouse, UniProt Q9WVS0 21-200); test: flow cytometry on CHO-S cells, purified IgG1
T2 construct: whole, on cells; also called mICOS; Mouse ICOS CHO
T2 sequence (looked up): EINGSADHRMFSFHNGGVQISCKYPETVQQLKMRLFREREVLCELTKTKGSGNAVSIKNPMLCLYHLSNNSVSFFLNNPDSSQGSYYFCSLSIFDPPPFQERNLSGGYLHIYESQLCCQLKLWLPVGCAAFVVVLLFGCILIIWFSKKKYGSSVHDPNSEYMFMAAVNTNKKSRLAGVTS

Binder | fold above the average of geomean of the negative control [1] | fold above the average of geomean of the negative control [2]
CL-74570 (antibody, V domains shown) VH: EVQLVESGGGVIRPGGSLRLSCAASGFTFDDYGMSWVRQAPGKGLEWVSGINWIGDNTDYADSVKGRFTISRDNAKNSLYLQMNSLRAEDTALYYCARDYFGSGSYYNVPF VL: not shown | > 10 fold | > 10 fold
CL-61091 (antibody, V domains shown) VH: QVQLMQSGTEVKKPGASVKVSCKTSGYTFTTYGITWVRQAPGQGLEWMGWISAYSGDTDYAQKFQGRVTVTTDTSTNTAYMELRSLKSDDTAVYYCARSSGWPHHYGMDVWGQGTTVTVSS VL: DIVMTQSPLSLPVTPGEPASISCRSSQSLLHSNGFNYFDWYLQKPGQSPQLLIFLVSNRASGVPDRFSGSGSGTDFTLKISRVEAEDVGIYYCMQALQTPLTFGGGTKVEIK | > 10 fold | > 10 fold
